The results in this text go back to US20050244416A1.

This experiment has as its target melanoma-associated proteoglycan expressed on M21 and SKMel63 melanoma cells (UniProt Q6UVK1). The experiment in a line: cell-based or functional assay.
UniProt Q6UVK1, sequence (Q6UVK1 30-2322 limits assumed): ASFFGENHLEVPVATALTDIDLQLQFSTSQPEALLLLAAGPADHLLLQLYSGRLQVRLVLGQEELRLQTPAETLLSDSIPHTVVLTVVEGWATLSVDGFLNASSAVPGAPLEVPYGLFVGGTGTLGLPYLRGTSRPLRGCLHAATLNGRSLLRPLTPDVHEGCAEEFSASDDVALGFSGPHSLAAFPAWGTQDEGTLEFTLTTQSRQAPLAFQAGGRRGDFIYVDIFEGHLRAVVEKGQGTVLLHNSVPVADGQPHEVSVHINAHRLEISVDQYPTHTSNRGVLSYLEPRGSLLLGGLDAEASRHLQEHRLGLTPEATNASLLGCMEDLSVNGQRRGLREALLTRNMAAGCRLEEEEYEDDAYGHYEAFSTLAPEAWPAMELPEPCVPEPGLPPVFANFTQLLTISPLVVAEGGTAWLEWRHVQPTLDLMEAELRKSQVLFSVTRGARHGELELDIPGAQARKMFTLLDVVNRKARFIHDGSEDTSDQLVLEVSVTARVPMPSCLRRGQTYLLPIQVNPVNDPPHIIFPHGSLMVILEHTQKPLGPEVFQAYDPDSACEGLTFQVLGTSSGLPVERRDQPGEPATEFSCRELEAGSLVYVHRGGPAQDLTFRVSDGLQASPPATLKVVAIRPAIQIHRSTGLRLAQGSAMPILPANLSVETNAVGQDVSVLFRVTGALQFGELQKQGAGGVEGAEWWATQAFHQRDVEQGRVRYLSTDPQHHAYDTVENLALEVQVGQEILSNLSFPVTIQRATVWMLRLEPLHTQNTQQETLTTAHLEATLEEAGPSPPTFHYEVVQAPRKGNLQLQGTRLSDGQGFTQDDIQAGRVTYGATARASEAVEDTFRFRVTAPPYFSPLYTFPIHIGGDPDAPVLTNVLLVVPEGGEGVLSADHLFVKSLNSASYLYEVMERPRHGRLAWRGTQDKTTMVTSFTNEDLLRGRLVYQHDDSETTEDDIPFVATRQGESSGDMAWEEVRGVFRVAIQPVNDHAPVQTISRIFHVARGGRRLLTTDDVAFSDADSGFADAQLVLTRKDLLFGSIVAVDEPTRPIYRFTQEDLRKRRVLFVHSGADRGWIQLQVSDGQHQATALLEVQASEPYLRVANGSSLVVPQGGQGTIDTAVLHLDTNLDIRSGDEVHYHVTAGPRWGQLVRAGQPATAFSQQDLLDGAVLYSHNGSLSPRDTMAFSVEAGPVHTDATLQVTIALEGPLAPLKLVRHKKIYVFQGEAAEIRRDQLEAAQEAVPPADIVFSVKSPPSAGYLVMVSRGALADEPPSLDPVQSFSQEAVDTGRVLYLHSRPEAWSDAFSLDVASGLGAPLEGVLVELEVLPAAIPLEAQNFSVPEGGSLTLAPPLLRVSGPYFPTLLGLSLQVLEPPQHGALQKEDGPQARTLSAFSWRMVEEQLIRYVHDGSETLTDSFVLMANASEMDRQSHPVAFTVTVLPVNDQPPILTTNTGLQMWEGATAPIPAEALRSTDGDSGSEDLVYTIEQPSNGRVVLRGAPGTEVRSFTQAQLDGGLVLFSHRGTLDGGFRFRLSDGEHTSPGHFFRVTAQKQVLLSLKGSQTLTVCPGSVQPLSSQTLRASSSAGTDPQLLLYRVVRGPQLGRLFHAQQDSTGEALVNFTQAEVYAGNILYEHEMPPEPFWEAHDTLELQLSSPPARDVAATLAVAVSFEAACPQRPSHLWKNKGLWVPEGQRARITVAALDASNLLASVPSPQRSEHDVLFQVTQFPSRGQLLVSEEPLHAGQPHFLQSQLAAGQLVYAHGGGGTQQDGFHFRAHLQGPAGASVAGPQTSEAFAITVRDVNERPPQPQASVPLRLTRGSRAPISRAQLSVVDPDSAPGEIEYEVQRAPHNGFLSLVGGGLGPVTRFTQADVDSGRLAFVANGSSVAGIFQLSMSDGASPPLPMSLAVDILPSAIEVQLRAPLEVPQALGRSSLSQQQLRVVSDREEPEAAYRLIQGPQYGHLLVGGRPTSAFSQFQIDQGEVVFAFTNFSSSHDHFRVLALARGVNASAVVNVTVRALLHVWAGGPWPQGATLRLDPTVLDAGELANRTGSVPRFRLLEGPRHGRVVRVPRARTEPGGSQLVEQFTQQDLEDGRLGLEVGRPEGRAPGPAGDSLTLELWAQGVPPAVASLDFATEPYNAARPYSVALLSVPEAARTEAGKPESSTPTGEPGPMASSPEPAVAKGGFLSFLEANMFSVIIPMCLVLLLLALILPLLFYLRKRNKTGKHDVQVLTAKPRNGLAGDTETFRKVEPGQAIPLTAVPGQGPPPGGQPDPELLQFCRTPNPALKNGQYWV

Regarding “chemically hybridized bispecific F(ab')2 fragment with melanoma (9.2.27) and CD28 (9.3) specificity (cM28) (bispecific antibody)”, the T cell proliferation (3H-thymidine uptake) of PBMC in the presence of irradiated SKMel63 cells is greater than 300 ng/mL.
